{"source": "paper PMC4286324", "origin": "cited, not measured here", "target": "Nef (Human immunodeficiency virus 1) (UniProt P04324)"}
{"substance": "Hck SH3 (from UniProt P08631)", "values": [{"measurement": "Kd", "result": 250, "unit": "nM"}]}
